From patent US20170240596A1 (CURATORS OF THE UNIVERSITY OF MISSOURI, published 2017) come the findings set out here.

Test [1] has as its target T1, Prostate-specific membrane antigen (PSMA) (human, UniProt Q04609 1-750).
T1 construct: whole, on cells; Never tested as an isolated protein against single peptides; also called NAAG peptidase; glutamate carboxypeptidase II (GCPII)
Nature of the test: apparent Kd, flow cytometry, FAM-labeled peptide on PSMA-positive LNCaP cells, 4 C, one-site fit. (In flow cytometry, cells or beads pass a laser one at a time.)
Description: Flow cytometry analysis. Cells were detached using non-enzymatic cell dissociation solution and suspended in PBS (pH=7.4) at a concentration of 1×10⁶ cells/mL. […] The cells were then washed with PBS for three times and subjected to fluorescence analysis on a FACSCalibur flow cytometer (BD Biosciences, Franklin Lakes, N.J.).
Apparent equilibrium dissociation constant (Kd) of the peptides. […] Flow cytometry was employed to determine the percentage of cells that were labeled with the peptides. The apparent Kd values were calculated by fitting to a one-site specific binding model using GraphPad Prism 5.

The target in test [2] is T1, Prostate-specific membrane antigen …. Nature of the test: competitive inhibition on LNCaP cells, peptide pre-incubation at 100 uM then phage, phage titering.
Protocol: Competitive inhibition assay. Competitive binding inhibition between selected phages and their encoded peptides was examined in this study. […] The bound phages were recovered and titered as described above.
It was first evaluated whether these phages bind to LNCaP cells via specific interaction with their encoding peptides. LNCaP cells were pre-incubated with the encoding peptides, followed by washing and incubation with the corresponding phages. The bound phages were then eluted and titered.
For test [3] the target is unchanged. Nature of the test: apparent Kd by flow cytometry on C4-2 cells; weaker than GTI.

No end group written: not given here.

T1 sequence (Q04609 whole entry): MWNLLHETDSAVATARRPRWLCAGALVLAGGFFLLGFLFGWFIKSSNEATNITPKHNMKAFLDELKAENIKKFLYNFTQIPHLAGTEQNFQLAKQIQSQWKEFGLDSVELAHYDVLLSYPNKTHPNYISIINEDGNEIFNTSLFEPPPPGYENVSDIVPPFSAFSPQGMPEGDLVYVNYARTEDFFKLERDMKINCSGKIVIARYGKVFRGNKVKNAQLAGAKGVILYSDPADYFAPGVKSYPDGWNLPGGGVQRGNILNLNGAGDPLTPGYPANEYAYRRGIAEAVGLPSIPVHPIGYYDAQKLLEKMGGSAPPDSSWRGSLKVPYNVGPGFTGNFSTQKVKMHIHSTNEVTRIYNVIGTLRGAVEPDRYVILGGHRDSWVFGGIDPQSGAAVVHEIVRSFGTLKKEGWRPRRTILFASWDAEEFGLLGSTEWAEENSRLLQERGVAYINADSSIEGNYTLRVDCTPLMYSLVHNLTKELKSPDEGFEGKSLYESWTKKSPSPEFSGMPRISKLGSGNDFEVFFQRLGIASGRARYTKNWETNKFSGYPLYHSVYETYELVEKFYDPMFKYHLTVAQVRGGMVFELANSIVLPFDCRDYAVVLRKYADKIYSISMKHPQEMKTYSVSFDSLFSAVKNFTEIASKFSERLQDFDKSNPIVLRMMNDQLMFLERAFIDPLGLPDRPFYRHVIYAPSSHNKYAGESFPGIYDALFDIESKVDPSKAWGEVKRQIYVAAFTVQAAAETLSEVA

Take YVNSHSILGYTG (also: FAM label, position not given here) [FAM-labeled YVN peptide YVNSHSILGYTG]: in test [1], the Kd amounted to 9.34 µM.
For the molecule TGHLYPTRMEIQ [TGH synthetic peptide TGHLYPTRMEIQ], the binding result in test [2] is given as “binds”.

B1: FAM-labeled scrambled GTI peptide SGYQTFYWPGPI (peptide)
peptide: SGYQTFYWPGPI
modifications: also: FAM label, position not given here
notes: Random permutation of the GTI peptide; also called scrambled peptide; scrambled control
B1: the binding result in test [3] is “binds”.
For TGHLYPTRMEIQ (also: FAM label, position not given here) [FAM-labeled TGH peptide TGHLYPTRMEIQ], the Kd in test [1] was 8.01 µM.
For HSDNHYRPADKL (also: FAM label, position not given here) [FAM-labeled HSD peptide HSDNHYRPADKL], the Kd in test [1] came to 12.8 µM.
On to YVNSHSILGYTG [YVN synthetic peptide YVNSHSILGYTG], for which the binding result in test [2] is given as “binds”.
